Source: PMC2824050

Target: HSV-1 cytoplasmic capsids (HSV-1, KOS strain) (UniProt P10202)
Test: co-sedimentation

UniProt P10202, sequence (P10202 whole entry, looked up): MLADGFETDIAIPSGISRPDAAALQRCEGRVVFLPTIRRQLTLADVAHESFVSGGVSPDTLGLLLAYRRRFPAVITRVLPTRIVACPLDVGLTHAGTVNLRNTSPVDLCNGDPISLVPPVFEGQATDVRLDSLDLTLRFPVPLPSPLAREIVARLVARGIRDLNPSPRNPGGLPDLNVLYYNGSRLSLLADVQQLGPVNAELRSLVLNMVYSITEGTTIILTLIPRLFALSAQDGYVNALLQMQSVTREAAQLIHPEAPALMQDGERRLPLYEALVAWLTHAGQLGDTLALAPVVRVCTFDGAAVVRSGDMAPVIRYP

B1: UL16 tegument protein of herpes simplex virus (natural protein)
chain: MAQLGPRRPLAPPGPPGTLPRPDSRAGARGTRDRVDDLGTDVDSIARIVNSVFVWRVVRADERLKIFRCLTVLTEPLCQVALPNPDPGRALFCEIFLYLTRPKALRLPPNTFFALFFFNRERRYCAIVHLRSVTHPLTPLLCTLTFARIRAATPPEETPDPTTEQLAEEPVVGELDGAYLVPAKTPPEPGACCALGPGAWWHLPSGQIYCWAMDSDLGSLCPPGSRARHLGWLLARITNHPGGCESCAPPPHIDSANALWLSSVVTESCPCVAPCLWAKMAQCTLAVQGDASLCPLLFGHPVDTVTLLQAPRRPCITDRLQEVVGGRCGADNIPPTSAGWRLCVFSSYISRLFATSCPTVARAVARASSSDPE
Binder B1 has an amount of UL16 on ΔUL37 capsids relative to WT of 42%.
